Measured values reported in US20160333113A1 (NATIONAL CANCER CENTER, published 2016).

Legend:
recombinant hTF = recombinant hTF (human, UniProt P13726 33-251); assay: cell-based or functional assay
[1] = target: T1, human tissue factor (hTF), purified, construct not stated (human, UniProt P13726 33-251, limits assumed); assay: SPR, Biacore 2000, antibody immobilized on CM5 chip, purified hTF in flow
T1 construct: The SPR and the chimeric-antibody ELISA say only 'purified hTF' / 'hTF'; also called purified hTF; human TF
Protocol: The anti-hTF monoclonal antibodies (No. 1849 and No. 1859) were each immobilized on the surface of a Biacore CM5 chip. The CM5 chip, which had each antibody immobilized thereon, was set in a SPR device, and an antigen-containing buffer containing purified hTF was allowed to flow through its flow path. The dissociation constant between each of the antibodies and hTF was determined by this measurement system. It should be noted that the measurement conditions were as follows.

Prolonged coagulation time ratio (prothrombin time ratio, PBS control = 1) (recombinant hTF) | Kd [1] [pM] | Binder
5.54 ratio relative to PBS | 91.4 | anti-hTF monoclonal antibody (No. 1849) (antibody, IgG2b, V domains shown, Rat hybridoma IgG purified on Protein G; constant regions are not; also called rat anti-hTF monoclonal antibody (No. 1849)) VH: EVQLVESGGGLVQSGRSLKLSCAASGFTFSDYNMAWIRQAPKKGLEWVAAIIYDGTRTYYRDSVRGRFTISRDNAKSTLYLQVDSLRSEDTATYYCATGDSYTNFAYWGQGTLVTVSS VL: EIVLTQSPTTMAASPGEKVTLTCRASSSLSYMHWYQQRSGTSPKLWIYETSKLASGVPNRFSGSGSGTSFSLTIDSMETEDAATYYCQQGNSYPRTFGGGTKLELK
1.22 ratio relative to PBS | 189 | anti-hTF monoclonal antibody (No. 1859) (antibody, IgG2a, V domains shown, Rat hybridoma IgG purified on Protein G; constant regions are not) VH: EVMLVESGPGLVQPSQTLSLICTVSGFSLTDYSVHWVRQPPGKGLEWVGVMWSGGTTTFNSGLKSRLSISRDTSKSQVFLKMYSLRTEDTAVYYCTRERAGSPLNWFAYWGQGTLVTVSS VL: DIVMTQSPASLSASLEEIVTITCQASQDIGNYLSWYQQKPGKSPHLLIHSSTSLADGVPSRFSGSRSGTQYSLKINRLQVEDTGVYYCLQHYSGSRTFGGGTNLELK
